# Key:
# Akt [1] = assay: MS quantification of activity of Akt immunoprecipitates from B lymphoma cells; type: cell-based, mouse; conditions: addition of PI3K inhibitor, FIG. 3B
# Experimental: (§1) The activity of recombinant Akt/PKB was measured using the methods of the invention. Recombinant Akt/PKB was purchased from Upstate (Hampshire, UK). A 5.0 μL aliquot of […] (SEQ ID. NO: 7), 7.5 mM magnesium chloride, 0.15 mM EDTA, 7.5 mM β-glycerol phosphate, 0.1 mM sodium orthovanadate, and 0.1 mM DTT was mixed with 2.5 μL solution of Akt/PKB of various amounts: 0.004, 0.04, 0.2, 0.8, 4, 20, and 80 ng. The incubation time of each reaction was from between 2 minutes to 18 hours. Reactions were stopped with the addition of 7.5 μL of a 1% trifluoroacetic acid solution containing 1 pmol/μL internal standard (mass labeled SEQ ID NO: 39). Aliquots (0.5 μL out of a total of […]) from each reaction were analyzed by either MALDI-TOF MS (Ultraflex, Bruker) or LC-MS/MS (Ultimate HPLC, Dionex, connected to a Micromass/Waters Q-TOF instrument) using a nanoESI interface. Reaction products were analyzed by LC-MS/MS without further treatment. […]
# (§2) Mouse WEHI-231 B lymphoma cell line was cultured as described in Cutillas et al., Mol Cell Proteomics 4:1038-51 (2005), incorporated herein in its entirety by reference. […] After centrifugation at 20,000×g, cell lysates were ready to use as enzyme sources. The enzyme activity of Akt in varying amounts of cell lysate (0.033, 0.067, 0.33, and 0.67 μg) was measured in the protocol outlined in example 2. […]
# Akt [2] = assay: Akt activity in B cell lysates in the presence of PI3K activators with or without inhibitor; type: cell-based, mouse; conditions: PI3K activators (sodium pervanadate and anti-IgM) present; with vs without inhibitor; FIG. 3C
# Experimental: as §1, §2
# Akt [3] = assay: MS quantification of Akt activity in B lymphoma cell lysates treated with PI3K inhibitors; type: cell-based, mouse; conditions: B lymphoma cell line WEHI-231; varying concentrations of inhibitor; FIG. 3A
# Experimental: as §1, §2
# [4] = tested on: T1, Akt peptide substrate (SEQ ID NO: 7)
# T1 sequence: RPRAATF
# [5] = tested on: T2, MAP Kinase peptide substrate (SEQ ID NO: 10)
# T2 sequence: APRTPGGRR
# [6] = tested on: T3, S6 Kinase/Rsk peptide substrate (SEQ ID NO: 5)
# T3 sequence: RRRLSSLRA
# [7] = tested on: Protein Kinase C peptide substrate (SEQ ID NO: 23)
# [8] = tested on: T4, PKC peptide substrate (SEQ ID NO: 12)
# T4 sequence: QKRPSQRSKYL
compound,measurement,setting,value
COC[C@H]1OC(=O)c2coc3c2[C@@]1(C)C1=C(C3=O)[C@@H]2CCC(=O)[C@@]2(C)C[C@H]1OC(C)=O [WM],Activity of Akt immunoprecipitates,Akt [1],similarly affected
same,Activity of Akt in B cell lysates,Akt [2],sensitive to the presence or absence of the inhibitor
same,Activity of the Akt enzyme in cell lysates,Akt [3],decreased enzyme activity
Cc1ccccc1-n1c(Cn2cnc3c(N)ncnc32)nc2cccc(C)c2c1=O [IC87114],Activity of the Akt enzyme in cell lysates,Akt [3],decreased enzyme activity
recombinant Akt/PKB,enzymatic activity (phosphorylated peptide product quantified by MALDI-TOF MS or LC-MS/MS),[4],capable of detecting enzymatic activity down to the zeptommole range
recombinant Erk,"extracted mass chromatogram of enzymatic product (LC-MS), time points 0, 10, 30, 60 min",[5],c) corresponds to phosphorylation of SEQ ID NO: 10 by Erk
recombinant S6 p70 kinase,"extracted mass chromatogram of enzymatic product (LC-MS), time points 0, 10, 30, 60 min",[6],b) corresponds to phosphylation of SEQ ID NO: 5 by S6 p70 kinase
recombinant PKC,"extracted mass chromatogram of enzymatic product (LC-MS), time points 0, 10, 30, 60 min",[7],d) corresponds to phosphorylation of SEQ ID NO: 23 by PKC
same,"extracted mass chromatogram of enzymatic product (LC-MS), time points 0, 10, 30, 60 min",[8],a) corresponds to phosphorylation of SEQ ID NO: 12 by PKC

# — patent US20090215098A1, “QUANTIFICATION OF ENZYME ACTIVITY BY MASS SPECTROMETRY” (UCL BUSINESS PLC., priority 2006, published 2009)
